In patent US20240109945A1 (UNIVERSITY OF GEORGIA RESEARCH FOUNDATION, published 2024):
Where a chain is given by its changes, count along the chain named.

T1: Asialofetuin (bovine, UniProt P12763 19-359, glycoprotein; desialylated form of Fetuin)
T1 construct: also called AF; desialylated Asialofetuin
T1 sequence (looked up): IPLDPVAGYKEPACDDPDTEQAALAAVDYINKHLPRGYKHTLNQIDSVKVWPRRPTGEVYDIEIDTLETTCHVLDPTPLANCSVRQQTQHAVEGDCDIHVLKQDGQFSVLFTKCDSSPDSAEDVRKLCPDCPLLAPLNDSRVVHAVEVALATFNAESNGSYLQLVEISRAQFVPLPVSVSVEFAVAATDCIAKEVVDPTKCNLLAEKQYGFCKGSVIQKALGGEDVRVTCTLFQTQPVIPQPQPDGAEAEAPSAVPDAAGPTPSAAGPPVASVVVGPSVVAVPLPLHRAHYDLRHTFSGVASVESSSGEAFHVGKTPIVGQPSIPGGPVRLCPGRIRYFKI

T2: Fetuin (bovine, UniProt P12763 19-359, heavily sialylated glycoprotein)
T2 sequence (looked up): T1 sequence (looked up)

B1: Variant Fbs1-1 (designed binder)
chain: MGSSHHHHHHHHSSGENLYFQSHMASQQEGLVPEGSADEERDHWQQFYFLSKRRRNLLRNPCGEEDLEGWSDVEHGGDGWRVEELPGDNGVEFTQDDSVKKYFASSFEWCRKAQVIDLQAEGYWEELLDTTQPAIVVKDWYSGRTDAGSLYELTVRLLSENEDVLAEFATGQVAVPEDGSWMEISHTFIDYGPGVRFVRFEHGGQDSVYWKGWFGARVTNSSVWVEP
notes: Expressed in E. coli and purified by IMAC
B2: Variant Fbs1-2 (designed binder)
chain: B1 chain with F107Y, E108R

Columns and labels:
Asialofetuin = target: T1, Asialofetuin; test: Western blot, 1 µg glycoprotein, Fbs1 variant as probe
Protocol: (§1) Lanes of each blot are labelled to show results for samples (1 μg each) of glycoproteins Asialofetuin, Fetuin, RNase B, Ovalbumin, Horse Radish Peroxidase, and IgG polyclonal antibody from rabbit, and a non-glycosylated protein RNase A, that were separated by SDS-PAGE, blotted on nitrocellulose membrane, and probed with Fbs1-1 (left blot) or Fbs1-2 (right blot).

Fetuin = target: T2, Fetuin; test: as above
Protocol: as §1

binding result (Asialofetuin)	binding result (Fetuin)	Binder
binds	binds	B1
binds	binds	B2
